According to the Human Domainome abundance scans (Beltran et al. 2025):
± gives the uncertainty stated by the source.

Test: abundance fitness (aPCA) (normalised: wild type 0, dead -1); higher = more abundant; growth selection in yeast, the domain comes from the species named
Details: Homo sapiens

Going from “SAFB-like transcription modulator K31V, Q9NWH9” to “SAFB-like transcription modulator K31W, Q9NWH9”, the abundance fitness falls from -0.056 ± 0.053 to -0.237 ± 0.053.

“SAFB-like transcription modulator K31Y, Q9NWH9” and “SAFB-like transcription modulator K35A, Q9NWH9” are within error of each other in abundance fitness: -0.213 ± 0.075 for the first, -0.08 ± 0.072 for the second.

Compared with “SAFB-like transcription modulator K35C, Q9NWH9”, “SAFB-like transcription modulator K35D, Q9NWH9” is higher in abundance fitness: -0.528 ± 0.23 for the first, -0.046 ± 0.097 for the second.

Compared with “SAFB-like transcription modulator K35E, Q9NWH9”, “SAFB-like transcription modulator K35F, Q9NWH9” is lower in abundance fitness: -0.013 ± 0.083 for the first, -0.267 ± 0.17 for the second.

Going from “SAFB-like transcription modulator K35G, Q9NWH9” to “SAFB-like transcription modulator K35I, Q9NWH9”, the abundance fitness falls from 0.023 ± 0.051 to -0.067 ± 0.037.

First: SAFB-like transcription modulator K35L, Q9NWH9
Second: SAFB-like transcription modulator K35M, Q9NWH9
The abundance fitness of the first is lower: -0.44 ± 0.11 for the first, -0.035 ± 0.079 for the second.

First: SAFB-like transcription modulator K35P, Q9NWH9
Second: SAFB-like transcription modulator K35Q, Q9NWH9
The abundance fitness of the first is lower: -0.943 ± 0.14 for the first, 0.052 ± 0.053 for the second.

“SAFB-like transcription modulator K35R, Q9NWH9” and “SAFB-like transcription modulator K35S, Q9NWH9” are within error of each other in abundance fitness: -0.023 ± 0.041 for the first, -0.034 ± 0.07 for the second.

First: SAFB-like transcription modulator K35T, Q9NWH9
Second: SAFB-like transcription modulator K35V, Q9NWH9
The abundance fitness of the first is lower: -0.474 ± 0.13 for the first, -0.11 ± 0.042 for the second.

“SAFB-like transcription modulator K35W, Q9NWH9” and “SAFB-like transcription modulator K35Y, Q9NWH9” are within error of each other in abundance fitness: -0.163 ± 0.077 for the first, -0.086 ± 0.37 for the second.

First: SAFB-like transcription modulator K45A, Q9NWH9
Second: SAFB-like transcription modulator K45C, Q9NWH9
The abundance fitness of the first is higher: -0.224 ± 0.068 for the first, -0.617 ± 0.052 for the second.

First: SAFB-like transcription modulator K45D, Q9NWH9
Second: SAFB-like transcription modulator K45E, Q9NWH9
The abundance fitness of the first is lower: -0.208 ± 0.037 for the first, -0.096 ± 0.038 for the second.

Compared with “SAFB-like transcription modulator K45F, Q9NWH9”, “SAFB-like transcription modulator K45G, Q9NWH9” is higher in abundance fitness: -0.55 ± 0.037 for the first, -0.2 ± 0.066 for the second.

“SAFB-like transcription modulator K45H, Q9NWH9” and “SAFB-like transcription modulator K45I, Q9NWH9” are within error of each other in abundance fitness: -0.372 ± 0.12 for the first, -0.513 ± 0.079 for the second.

Going from “SAFB-like transcription modulator K45L, Q9NWH9” to “SAFB-like transcription modulator K45M, Q9NWH9”, the abundance fitness rises from -0.731 ± 0.056 to -0.325 ± 0.076.

“SAFB-like transcription modulator K45N, Q9NWH9” and “SAFB-like transcription modulator K45P, Q9NWH9” are within error of each other in abundance fitness: -0.334 ± 0.086 for the first, -0.194 ± 0.077 for the second.

Going from “SAFB-like transcription modulator K45Q, Q9NWH9” to “SAFB-like transcription modulator K45S, Q9NWH9”, the abundance fitness falls from -0.099 ± 0.084 to -0.25 ± 0.055.

First: SAFB-like transcription modulator K45T, Q9NWH9
Second: SAFB-like transcription modulator K45V, Q9NWH9
The abundance fitness of the first is higher: -0.095 ± 0.053 for the first, -0.399 ± 0.052 for the second.

First: SAFB-like transcription modulator K45W, Q9NWH9
Second: SAFB-like transcription modulator K45Y, Q9NWH9
The abundance fitness of the first is lower: -0.293 ± 0.054 for the first, -0.005 ± 0.085 for the second.

First: SAFB-like transcription modulator K53A, Q9NWH9
Second: SAFB-like transcription modulator K53C, Q9NWH9
The abundance fitness of the first is higher: 0.006 ± 0.071 for the first, -0.231 ± 0.052 for the second.

First: SAFB-like transcription modulator K53D, Q9NWH9
Second: SAFB-like transcription modulator K53E, Q9NWH9
The abundance fitness of the first is lower: -0.931 ± 0.3 for the first, -0.351 ± 0.099 for the second.

“SAFB-like transcription modulator K53F, Q9NWH9” and “SAFB-like transcription modulator K53G, Q9NWH9” are within error of each other in abundance fitness: -0.291 ± 0.06 for the first, -0.35 ± 0.089 for the second.

First: SAFB-like transcription modulator K53H, Q9NWH9
Second: SAFB-like transcription modulator K53I, Q9NWH9
The abundance fitness of the first is higher: -0.039 ± 0.14 for the first, -0.369 ± 0.08 for the second.

“SAFB-like transcription modulator K53M, Q9NWH9” and “SAFB-like transcription modulator K53N, Q9NWH9” are within error of each other in abundance fitness: -0.407 ± 0.12 for the first, -0.295 ± 0.11 for the second.

First: SAFB-like transcription modulator K53P, Q9NWH9
Second: SAFB-like transcription modulator K53Q, Q9NWH9
The abundance fitness of the first is lower: -0.778 ± 0.058 for the first, -0.159 ± 0.084 for the second.

Substance “SAFB-like transcription modulator K53R, Q9NWH9” has an abundance fitness of 0.05 ± 0.059.
